Reference: patent US20220064294A1 (ARCUS BIOSCIENCES, published 2022)

How the values were obtained:
[1] = target: T1, cynomolgus monkey TIGIT, full length, on cells (cynomolgus monkey); assay: flow cytometry on cTIGIT-CHO cells
T1 construct: Whole entry of 312 amino acids; also called cyno TIGIT; cTIGIT
Protocol: (§1) These clones were further expanded, and antibodies were purified using a Protein G column. These purified antibodies were tested for binding to human and cyno TIGIT expressed on cell surface by flow cytometry. Stable CHO-K1 cell lines expressing full length human TIGIT clone 2A7 (Swiss-Prot Q495A1; SEQ ID NO: 80) or full length cyno TIGIT clone C10 (Swiss-Prot A0A2K5UW92; SEQ ID NO: 84) were developed. For the flow assay, cells were collected and incubated in 100 μL of HBSS buffer in the presence (or absence) of various concentrations of antibodies for 1 hr at 4° C. After washing with HBSS, antibody binding on cells was detected with 2 μg/mL of Alexa488-labeled goat anti-mouse IgG antibody (ThermoFisher Scientific, Cat #A-11001) for 30 min at 4° C. Cells were then washed and resuspended in PBS and subjected to flow cytometry using an Attune NxT flow cytometer (ThermoFisher Scientific, Waltham, Mass.). The geometric mean of the fluorescence intensity was obtained for the whole single cell population. Antibodies capable of binding to both human and cyno TIGIT expressed on cell surface were further tested for their blocking activity against recombinant human CD155 binding to human TIGIT on the surface of CHO cells. CHO-hTIGIT cells (10⁵ cells) were incubated with 2.5 μg/mL hCD155-Fc protein in the presence of various concentrations of antibody at room temperature for 1 hr. […] Cells were then washed and subjected to flow cytometry analysis.
(§2) The binding capability of these chimera anti-TIGIT antibodies to cell surface overexpressed human and cyno TIGIT was confirmed utilizing the flow cytometry assay previously described. After incubation of chimera anti-TIGIT antibody with hTIGIT-CHO or cTIGIT-CHO, bound antibody was detected using Alexa488 conjugated goat anti-human IgG antibody (ThermoFisher Scientific, Cat #A-11013). Antibody functional activity in inhibiting recombinant hCD155-hFc binding to hTIGIT-CHO-K1 cells was also determined using flow assay as previously described.

[2] = target: T2, human TIGIT, full length, on cells (human, UniProt Q495A1 22-244); assay: flow cytometry on hTIGIT-CHO cells
T2 construct: also called hTIGIT; hTIGIT-CHO
T2 sequence: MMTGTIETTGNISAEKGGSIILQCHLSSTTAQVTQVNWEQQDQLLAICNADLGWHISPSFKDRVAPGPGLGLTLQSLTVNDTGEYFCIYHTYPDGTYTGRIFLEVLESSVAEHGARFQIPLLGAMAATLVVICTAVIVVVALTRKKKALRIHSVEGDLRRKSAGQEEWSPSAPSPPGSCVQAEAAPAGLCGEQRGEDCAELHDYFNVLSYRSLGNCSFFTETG
Protocol: as §1, §2

[3] = target: T2, human TIGIT, full length, on cells; assay: flow cytometry, endogenous TIGIT on isolated human CD4+ T cells
Protocol: (§3) The ability of chimera anti-TIGIT antibodies to bind to endogenously expressed TIGIT on isolated human CD4⁺ and CD8⁺ cells was tested using a flow cytometry assay. Human CD4⁺ or CD8⁺ T cells were isolated from human whole blood using RosetteSep™ Human CD4⁺ T cell Enrichment Cocktail (Stemcell, Cat #15022) or Human CD8⁺ T cell enrichment Cocktail (Stemcell, […]), respectively. […] However, differences in max binding activity (MFImax) was observed between clones.

[4] = target: T2, human TIGIT, full length, on cells; assay: flow cytometry, endogenous TIGIT on isolated human CD8+ T cells
Protocol: as §3

[5] = target: T2, human TIGIT, full length, on cells; assay: flow cytometry, inhibition of hCD155-hFc binding to hTIGIT-CHO-K1 cells
Protocol: as §1, §2

cTIGIT-His = target: T3, cTIGIT-His (cynomolgus monkey); assay: SPR, Biacore T200, antibody captured on anti-human IgG chip, cTIGIT-His as analyte
T3 construct: also called His-tagged cyno TIGIT protein extracellular domain; soluble cTIGIT-His
T3 chain: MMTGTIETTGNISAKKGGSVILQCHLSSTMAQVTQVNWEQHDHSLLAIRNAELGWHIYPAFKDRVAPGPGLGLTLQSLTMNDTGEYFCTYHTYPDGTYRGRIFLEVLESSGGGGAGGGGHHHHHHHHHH
Protocol: (§4) The purified, full-length antibodies Hu24F8.1-IgG1.AA (containing VH1+VL2) and Hu24F8.2-IgG1.AA (containing VH2+VL2), together with the full-length chimera antibody of 24F8 mouse VH+VL and human IgG1/kappa constant domains (Ch24F8), were analyzed by SPR using a Biacore T200 instrument with antibody capture using an anti-human IgG coated chip and soluble hTIGIT-His or cTIGIT-His as the analyte.

hTIGIT-His = target: T4, hTIGIT-His (human); assay: SPR, Biacore T200, antibody captured on anti-human IgG chip, hTIGIT-His as analyte
T4 construct: also called His-tagged human TIGIT protein extracellular domain; soluble hTIGIT-His
T4 chain: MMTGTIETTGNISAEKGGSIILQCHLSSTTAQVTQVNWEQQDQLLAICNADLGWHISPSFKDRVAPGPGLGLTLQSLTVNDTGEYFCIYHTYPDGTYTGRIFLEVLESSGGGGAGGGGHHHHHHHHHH
Protocol: as §4

[6] = target: T5, soluble His-tagged TIGIT (Acro Biosystems, Cat #No. TIT-H52H3) (human, UniProt Q495A1 22-141); assay: SPR, ProteOn XPR36, antibody on Protein A chip, soluble His-tagged TIGIT as analyte, 25 C
T5 construct: Bought protein; also called His-tagged human TIGIT
T5 sequence (looked up): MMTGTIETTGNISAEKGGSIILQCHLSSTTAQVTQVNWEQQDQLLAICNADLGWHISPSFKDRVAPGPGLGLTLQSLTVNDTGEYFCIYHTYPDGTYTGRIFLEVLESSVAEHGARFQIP
Protocol: The kinetic binding of these recombinant anti-TIGIT antibodies to human TIGIT was determined by surface plasmon resonance (SPR) using a Bio-Rad ProteOn XPR36 instrument. Recombinant antibodies were immobilized using a Protein A coated GLC sensor chip, and soluble His-tagged TIGIT (Acro Biosystems, Cat #No. TIT-H52H3) was used as the analyte. The binding constants were determined at 25° C.

B1: Ch24F8 (antibody, human IgG1, V domains shown)
VH: DVQLQESGPDLVKPSQSLSLTCTVTGYSITSGYSWHWIRQFPGNKLDWMGYVHYSGSTNYNPSLKSRISITRDTSKNQFFLQLNSVTTEDTATFYCARMDYGNYGGAMDYWGQGTSVTVSS
VL: EIVMTQSHKFMSTSVGDRVSITCKASQDVRTAVAWYQQKPGQSPKLLIYSASYRYTGVPDRFTGSGSGTDFTFTISSVQAEDLAVYYCQQYYSTQWTFGGGTKLEIK
notes: also called full-length chimera antibody of 24F8 mouse VH+VL and human IgG1/kappa constant domains
EC50 [1]: 0.199 nM | EC50 [2]: 0.15 nM | CD4+ MFImax [3]: 210 MFI | EC50 [3]: 0.13 nM | CD8+ MFImax [4]: 5800 MFI | EC50 [4]: 0.177 nM | IC50 [5]: 0.62 nM | Kd (cTIGIT-His): 1.66 nM | koff (cTIGIT-His): 0.00109 s⁻¹ | kon (cTIGIT-His): 658000 M⁻¹ s⁻¹ | Kd (hTIGIT-His): 0.183 nM | koff (hTIGIT-His): 0.000156 s⁻¹ | kon (hTIGIT-His): 853000 M⁻¹ s⁻¹ | Kd [6]: 0.035 nM | koff [6]: 7.5e-05 s⁻¹ | kon [6]: 2.15e+06 M⁻¹ s⁻¹

B2: Ch30M18 (antibody, human IgG1, V domains shown)
VH: EVQLQQSGPELVKPGASVKISCKTSGYTFTEYTMHWVKQSHGKSLEWIGGINPNNGGTSYNQKFKGKATLTVDKSSSTAYMELRSLTSEDSAVYYCARSGHMDYGYVYWGQGTTLTVSS
VL: DIVMTQSHKFMSTSVGDRVSITCKASQYVSTAVAWYQQKPGQSPKLLIYSPSYRYTGVPDRFTGSGSGTDFTFTISSVQAEDLAVYYCQQHYSTPWTFGGGTKLEIK
notes: also called recombinant anti-TIGIT mouse/human chimera antibody 30M18
EC50 [1]: 6.14 nM | EC50 [2]: 0.336 nM | CD4+ MFImax [3]: 125 MFI | EC50 [3]: 0.197 nM | CD8+ MFImax [4]: 3500 MFI | EC50 [4]: 0.293 nM | IC50 [5]: 2.18 nM | Kd [6]: 2.38 nM | koff [6]: 0.00173 s⁻¹ | kon [6]: 727000 M⁻¹ s⁻¹

B3: Ch21B9 (antibody, human IgG1, V domains shown)
VH: EVQLVESGGGLVKPGGSLKLSCTASGFTFSSYAMSWVRQSPEKRLEWVAEISSGGSYTYYTDTVTGRFTISRDNAKNTLYLEMSSLRSEDTAMYYCARKRRDYYGMDYWGQGTSVTVSS
VL: DVQITQSPSYLAASPGETITINCRASKSISKYLAWYQEKPGKTNKLLIYSGSTLQTGIPSRFSGSGSGTDFTLTISSLEPEDFAMYYCQQHNEYPWTFGGGTKLEIK
notes: also called recombinant anti-TIGIT mouse/human chimera antibody 21B9
EC50 [1]: 0.18 nM | EC50 [2]: 0.102 nM | CD4+ MFImax [3]: 150 MFI | EC50 [3]: 0.029 nM | CD8+ MFImax [4]: 4500 MFI | EC50 [4]: 0.062 nM | IC50 [5]: 0.8 nM | Kd [6]: 7.1 nM | koff [6]: 0.074 s⁻¹ | kon [6]: 1.05e+07 M⁻¹ s⁻¹

B4: Ch22B22 (antibody, human IgG1, V domains shown)
VH: EVQLVESGGGLVKPGGSLKLSCAASGFTFSSYAMSWVRQSPEKRLEWVAEISSGGSYTYYPDTVTGRFTISRDNAKNTLYLEMSSLRSEDTAMYYCARKRRDYYAMDYWGQGTSVTVSS
VL: DVQITQSPSYLAASPGETITINCRASKSISKYLAWYQEKPGKTNKLLIYSGSTLQSGIPSRFSGSGSGTDFTLTISSLEPEDFAMYYCQQHNEYPWTFGGGTKLEIK
notes: Expressed in HEK293, purified on Protein A; also called recombinant anti-TIGIT mouse/human chimera antibody 22B22
EC50 [1]: 0.24 nM | EC50 [2]: 0.16 nM | CD4+ MFImax [3]: 140 MFI | EC50 [3]: 0.097 nM | CD8+ MFImax [4]: 5000 MFI | EC50 [4]: 0.175 nM | IC50 [5]: 1.16 nM | Kd [6]: 9.78 nM | koff [6]: 0.0141 s⁻¹ | kon [6]: 1.44e+06 M⁻¹ s⁻¹

B5: Ch28O12 (antibody, human IgG1, V domains shown)
VH: EVQLVESGGGLVKPGGSLKLSCAASGFTFSNYAMSWVRQSPEKRLEWVAEISGGGSYTYHPDTVTGRFTISRDNAKNTLYLEMSSLRSEDTAMYYCARKRRDYYAMDYWGQGTSVTVSS
VL: DVQITQSPSYLAASPGETITINCRASKSISKYLAWYQEKPGKTNKLLIYSGSTLQSGIPSRFSGSGSGTDFTLTISSLEPEDFAMYYCQQHNEYPWTFGGGTKLEIK
notes: also called recombinant anti-TIGIT mouse/human chimera antibody 28O12
EC50 [1]: 0.358 nM | EC50 [2]: 0.159 nM | CD4+ MFImax [3]: 190 MFI | EC50 [3]: 0.141 nM | CD8+ MFImax [4]: 7200 MFI | EC50 [4]: 0.249 nM | IC50 [5]: 0.48 nM | Kd [6]: 0.904 nM | koff [6]: 0.00113 s⁻¹ | kon [6]: 1.26e+06 M⁻¹ s⁻¹

B6: Ch21B16 (antibody, human IgG1, V domains shown)
VH: EVQLVESGGGLVKPGGSLKLSCAASGFTFSTYAMSWVRQSPEKRLEWVAEISSGGTYTYFPDTVTGRFTISRDNAKNTLYLEMSSLRSEDTAMYYCARKRRDYYAMDYWGQGTSVTVSS
VL: DVQITQSPSYLAASPGETITINCRASKSISKYLAWYQEKPGKTNKLLIYSGSTLQSGIPSRFSGSGSGTDFTLTISSLEPEDFAVYYCQQHNEYPWTFGGGTKLEIK
notes: also called recombinant anti-TIGIT mouse/human chimera antibody 21B16
EC50 [1]: 0.42 nM | EC50 [2]: 0.12 nM | CD4+ MFImax [3]: 180 MFI | EC50 [3]: 0.119 nM | CD8+ MFImax [4]: 5200 MFI | EC50 [4]: 0.16 nM | IC50 [5]: 0.2 nM | Kd [6]: 6.3 nM | koff [6]: 0.00929 s⁻¹ | kon [6]: 1.47e+06 M⁻¹ s⁻¹

B7: Ch5J24 (antibody, human IgG1, V domains shown)
VH: QVQLQQSGAELVRPGTSVKMSCKAAGYTFTNHWIGWVKQRPGHGLEWIGDIYPGGGYTNYNEKFKGKATLTADTSSSTAYMYLSSLTSEDSAIYYCARSYGYDLYAMDYWGQGTSVTVSS
VL: DIQMTQSPSSLSASLGERVSLTCRASQEISGYLSWLQQKPDGTIKRLIYAASTLGSGVPKRFSGSRSGSDYSLTISSLESEDFADYYCLQYDSYPFTFGAGTKLELK
notes: also called recombinant anti-TIGIT mouse/human chimera antibody 5J24
EC50 [1]: 0.212 nM | EC50 [2]: 0.131 nM | CD4+ MFImax [3]: 125 MFI | EC50 [3]: 0.073 nM | CD8+ MFImax [4]: 4500 MFI | EC50 [4]: 0.117 nM | IC50 [5]: 0.7 nM | Kd [6]: 3.85 nM | koff [6]: 0.0214 s⁻¹ | kon [6]: 5.57e+06 M⁻¹ s⁻¹
